Results reported in patent publication US20170275666A1, “Methods for Preparing Rebaudioside I and Uses” (The Coca-Cola Company, priority 2014, published 2017).
Residue numbers refer to the chain shown, from its start.

B1: UGT76G1var8: UGT76G1 variant, mutations E224A_Q266S_Q342E (protein, UniProt Q6VAB4 1-458, looked up, variant E224A Q266S Q342E)
UDP-glycosyltransferase 76G1: MENKTETTVRRRRRIILFPVPFQGHINPILQLANVLYSKGFSITIFHTNFNKPKTSNYPHFTFRFILDNDPQDERISNLPTHGPLAGMRIPIINEHGADELRRELELLMLASEEDEEVSCLITDALWYFAQSVADSLNLRRLVLMTSSLFNFHAHVSLPQFDELGYLDPDDKTRLEEQASGFPMLKVKDIKSAYSNWQILKEILGKMIKQTKASSGVIWNSFKALEESELETVIREIPAPSFLIPLPKHLTASSSSLLDHDRTVFSWLDQQPPSSVLYVSFGSTSEVDEKDFLEIARGLVDSKQSFLWVVRPGFVKGSTWVEPLPDGFLGERGRIVKWVPQEEVLAHGAIGAFWTHSGWNSTLESVCEGVPMIFSDFGLDQPLNARYMSDVLKVGVYLENGWERGEIANAIRRVMVDEEGEYIRQNARVLKQKADVSLMKGGSSYESLESLVSYISSL
B2: UGT76G1var14: UGT76G1 variant, mutations A239I_F265I_V396F (protein, UniProt Q6VAB4 1-458, looked up, variant A239I F265I V396F)
UDP-glycosyltransferase 76G1: B1 UDP-glycosyltransferase 76G1 with A224E, A239I, F265I, S266Q, E342Q, V396F
B3: UGT76G1var17: UGT76G1 variant, mutations F265L_Q266E_Q342K (protein, UniProt Q6VAB4 1-458, looked up, variant F265L Q266E Q342K)
UDP-glycosyltransferase 76G1: B1 UDP-glycosyltransferase 76G1 with A224E, F265L, S266E, E342K
B4: UGT76G1var27: UGT76G1 variant, mutations A239I_L379A_V394I (protein, UniProt Q6VAB4 1-458, looked up, variant A239I L379A V394I)
UDP-glycosyltransferase 76G1: B1 UDP-glycosyltransferase 76G1 with A224E, A239I, S266Q, E342Q, L379A, V394I
B5: UGT76G1var26: UGT76G1 variant, mutations S241I_F265L_F377C (protein, UniProt Q6VAB4 1-458, looked up, variant S241I F265L F377C)
UDP-glycosyltransferase 76G1: B1 UDP-glycosyltransferase 76G1 with A224E, S241I, F265L, S266Q, E342Q, F377C
B6: UGT76G1var22: UGT76G1 variant, mutations E231A_V310I_R334K (protein, UniProt Q6VAB4 1-458, looked up, variant E231A V310I R334K)
UDP-glycosyltransferase 76G1: B1 UDP-glycosyltransferase 76G1 with A224E, E231A, S266Q, V310I, R334K, E342Q
B7: UGT76G1var9: UGT76G1 variant, mutations E231A_D301N_G348P (protein, UniProt Q6VAB4 1-458, looked up, variant E231A D301N G348P)
UDP-glycosyltransferase 76G1: B1 UDP-glycosyltransferase 76G1 with A224E, E231A, S266Q, D301N, E342Q, G348P
B8: UGT76G1var25: UGT76G1 variant, mutations T284L_Q342K_Y397Q (protein, UniProt Q6VAB4 1-458, looked up, variant T284L Q342K Y397Q)
UDP-glycosyltransferase 76G1: B1 UDP-glycosyltransferase 76G1 with A224E, S266Q, T284L, E342K, Y397Q
B9: UGT76G1var24: UGT76G1 variant, mutations A239I_P272A_Q425E (protein, UniProt Q6VAB4 1-458, looked up, variant A239I P272A Q425E)
UDP-glycosyltransferase 76G1: B1 UDP-glycosyltransferase 76G1 with A224E, A239I, S266Q, P272A, E342Q, Q425E
B10: UGT76G1var15: UGT76G1 variant, mutations F41L_L246F_Q425E (protein, UniProt Q6VAB4 1-458, looked up, variant F41L L246F Q425E)
UDP-glycosyltransferase 76G1: B1 UDP-glycosyltransferase 76G1 with F41L, A224E, L246F, S266Q, E342Q, Q425E
B11: UGT76G1var28: UGT76G1 variant, mutations L243A_S274G_P382M (protein, UniProt Q6VAB4 1-458, looked up, variant L243A S274G P382M)
UDP-glycosyltransferase 76G1: B1 UDP-glycosyltransferase 76G1 with A224E, L243A, S266Q, S274G, E342Q, P382M
B12: UGT76G1var20: UGT76G1 variant, mutations S375M_K393G_Y397E (protein, UniProt Q6VAB4 1-458, looked up, variant S375M K393G Y397E)
UDP-glycosyltransferase 76G1: B1 UDP-glycosyltransferase 76G1 with A224E, S266Q, E342Q, S375M, K393G, Y397E
B13: UGT76G1var13: UGT76G1 variant, mutations L243A_S357C_A385T (protein, UniProt Q6VAB4 1-458, looked up, variant L243A S357C A385T)
UDP-glycosyltransferase 76G1: B1 UDP-glycosyltransferase 76G1 with A224E, L243A, S266Q, E342Q, S357C, A385T
B14: UGT76G1var21: UGT76G1 variant, mutations A239V_V300A_K303G (protein, UniProt Q6VAB4 1-458, looked up, variant A239V V300A K303G)
UDP-glycosyltransferase 76G1: B1 UDP-glycosyltransferase 76G1 with A224E, A239V, S266Q, V300A, K303G, E342Q
B15: UGT76G1var23: UGT76G1 variant, mutations T263S_G348P_A352G (protein, UniProt Q6VAB4 1-458, looked up, variant T263S G348P A352G)
UDP-glycosyltransferase 76G1: B1 UDP-glycosyltransferase 76G1 with A224E, T263S, S266Q, E342Q, G348P, A352G
B16: UGT76G1var19: UGT76G1 variant, mutations E224D_E229A_Q432E (protein, UniProt Q6VAB4 1-458, looked up, variant E224D E229A Q432E)
UDP-glycosyltransferase 76G1: B1 UDP-glycosyltransferase 76G1 with A224D, E229A, S266Q, E342Q, Q432E
B17: UGT76G1var18: UGT76G1 variant, mutations L243P_S274G_N409R (protein, UniProt Q6VAB4 1-458, looked up, variant L243P S274G N409R)
UDP-glycosyltransferase 76G1: B1 UDP-glycosyltransferase 76G1 with A224E, L243P, S266Q, S274G, E342Q, N409R
B18: UGT76G1var10: UGT76G1 variant, mutations A33G_L246F_Q342E (protein, UniProt Q6VAB4 1-458, looked up, variant A33G L246F Q342E)
UDP-glycosyltransferase 76G1: B1 UDP-glycosyltransferase 76G1 with A33G, A224E, L246F, S266Q
B19: UGT76G1var16: UGT76G1 variant, mutations F265I_P272A_I335V (protein, UniProt Q6VAB4 1-458, looked up, variant F265I P272A I335V)
UDP-glycosyltransferase 76G1: B1 UDP-glycosyltransferase 76G1 with A224E, F265I, S266Q, P272A, I335V, E342Q
B20: UGT76G1var11: UGT76G1 variant, mutations F22L_A33G_V310I (protein, UniProt Q6VAB4 1-458, looked up, variant F22L A33G V310I)
UDP-glycosyltransferase 76G1: B1 UDP-glycosyltransferase 76G1 with F22L, A33G, A224E, S266Q, V310I, E342Q
B21: UGT76G1var12: UGT76G1 variant, mutations L243P_K303G_A352G (protein, UniProt Q6VAB4 1-458, looked up, variant L243P K303G A352G)
UDP-glycosyltransferase 76G1: B1 UDP-glycosyltransferase 76G1 with A224E, L243P, S266Q, K303G, E342Q, A352G

Test: Directed evolution of UGT76G1, conversion of Rebaudioside D to Rebaudioside M (round 1)
Assay type: biochemical
Conditions: 0.5 mM Rebaudioside D, 2.5 mM UDP-Glucose, 100 μL fresh lysate, 30° C., pH 7.2
Description: Starting from the amino acid sequence of UGT76G1, as is described in Genbank (AAR06912.1), different mutations at various amino acid positions were identified that could alter the activity of the enzyme for the transformation of Rebaudioside D (Reb D) to Rebaudioside M (Reb M). This list of mutations, designed by DNA2.0 ProteinGPS™ strategy, was subsequently used to synthesize 96 variant genes that contained 3, 4 or 5 of these mutations that were codon-optimized for expression in E. coli. The genes were subcloned in the pET30a+ plasmid and used for transformation of E. coli BL21 (DE3) chemically competent cells. The obtained cells were grown in Petri-dishes on solid LB medium in the presence of Kanamycin. Suitable colonies were selected and allowed to grow in liquid LB medium in tubes. Glycerol was added to the suspension as cryoprotectant and 400 μL aliquots were stored at −20° C. and at −80° C.
These storage aliquots of E. coli BL21(DE3) containing the pET30a+_UGT76G1var plasmids were thawed and added to LBGKP medium (20 g/L Luria Broth Lennox; 50 mM PIPES buffer pH 7.00; 50 mM Phosphate buffer pH 7.00; 2.5 g/L glucose and 50 mg/L of Kanamycine). This culture was allowed to shake in a 96 microtiter plate at 135 rpm at 30° C. for 8 h.
3.95 mL of production medium containing 60 g/L of Overnight Express™ Instant TB medium (Novagen®), 10 g/L of glycerol and 50 mg/L of Kanamycin was inoculated with 50 μL of above described culture. In a 48 deepwell plate the resulting culture was allowed to stir at 20° C. The cultures gave significant growth and a good OD (600 nm; 1 cm) was obtained. After 44 h, the cells were harvested by centrifugation and frozen.
Lysis was performed by addition of Bugbuster® Master mix (Novagen®) to the thawed cells and the lysate was recovered by centrifugation. Activity tests were performed with 100 μL of fresh lysate that was added to a solution of Rebaudioside D (final concentration 0.5 mM), MgCl2 (final concentration 3 mM) and UDP-Glucose (final concentration 2.5 mM) in 50 mM phosphate buffer pH 7.2.
The reaction was allowed to run at 30° C. and samples were taken after 2, 4, 7 and 24 h. to determine conversion and initial rate by HPLC (CAD detection) using the analytical method that was described above for the transformation of Rebaudioside D to Rebaudioside M. The results are depicted in the following table.

Row | Molecule | Conversion Reb D to Reb M after 24 h (%) | initial rate (Reb M area/min)
1 | B1 | 0.5 | 2.3E+04
2 | B2 | 5.3 | 1.5E+06
3 | B3 | 0.7 | 7.2E+05
4 | B4 | 29.0 | 1.5E+07
5 | B5 | 1.8 | 7.5E+05
6 | B6 | 34.4 | 2.4E+07
7 | B7 | 52.0 | 4.9E+07
8 | B8 | 0.9 | 6.3E+04
9 | B9 | 31.0 | 2.1E+07
10 | B10 | 5.6 | 1.5E+06
11 | B11 | 6.1 | 2.4E+06
12 | B12 | 1.8 | 1.9E+06
13 | B13 | 0.2 | −3.3E+04
14 | B14 | 41.9 | 3.3E+07
15 | B15 | 47.8 | 4.1E+07
16 | B16 | 10.5 | 5.5E+06
17 | B17 | 1.9 | 5.0E+05
18 | B18 | 0.3 | −7.7E+02
19 | B19 | 18.6 | 5.8E+06
20 | B20 | 0.4 | 3.8E+04
21 | B21 | 0.5 | 8.7E+04
